pKd: −log10 of the molar value. One block for each substance: values may come before it.
What was measured:
[1] = molecular target: SUMO-ARVCF peptide fusion protein (yeast); experiment: SPR; linker mutant immobilised on Ni-NTA chip, SUMO-peptide fusion as analyte
[2] = molecular target: SUMO-ARVCF peptide fusion protein, Ala substitution at position -5 (yeast); experiment: SPR, Ala scanning; reference wild-type ARVCF peptide
[3] = molecular target: SUMO-ARVCF peptide fusion protein, Ala substitution at position -4 (yeast); experiment: as above
[4] = molecular target: SUMO-ARVCF peptide fusion protein, Ala substitution at position -7 (yeast); experiment: as above
[5] = molecular target: SUMO-ARVCF peptide fusion protein, Ala substitution at position -6 (yeast); experiment: as above
[6] = molecular target: SUMO-δ-catenin peptide fusion protein (yeast); experiment: binding analysis of purified protein; reference ARVCF peptide
[7] = molecular target: SUMO-ARVCF peptide fusion protein (yeast); experiment: SPR (BIAcore 2000); clamp immobilised on Ni-NTA chip, SUMO-peptide fusion as analyte
[8] = molecular target: SUMO-δ-catenin peptide fusion protein (yeast); experiment: ratio of SPR Kd values, reference ARVCF peptide
[9] = molecular target: SUMO-ARVCF peptide fusion protein (yeast); experiment: SPR; clamp immobilised on Ni-NTA chip, SUMO-peptide fusion as analyte
[10] = molecular target: SUMO-ARVCF peptide fusion protein (yeast); experiment: SPR; linker mutant against ePDZ-b with the GGSGG linker

Chain of ePDZ-b linker mutant GGSG (Q96RT1 other isoform, or with tags, fused parts or gaps, change not shown): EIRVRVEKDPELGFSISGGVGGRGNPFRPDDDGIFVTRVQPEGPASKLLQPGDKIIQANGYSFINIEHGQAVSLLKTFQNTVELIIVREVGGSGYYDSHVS
Chain of ePDZ-b linker mutant GGS (Q96RT1 other isoform, or with tags, fused parts or gaps, change not shown): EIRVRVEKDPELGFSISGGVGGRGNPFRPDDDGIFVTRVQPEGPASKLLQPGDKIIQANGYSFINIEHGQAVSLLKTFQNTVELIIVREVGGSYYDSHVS
Chain of ePDZ-a linker mutant GG (Q96RT1 other isoform, or with tags, fused parts or gaps, change not shown): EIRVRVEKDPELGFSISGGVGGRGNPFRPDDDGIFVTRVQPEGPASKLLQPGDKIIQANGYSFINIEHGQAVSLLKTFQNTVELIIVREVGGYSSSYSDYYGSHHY
Chain of ePDZ-a linker mutant GGS (Q96RT1 other isoform, or with tags, fused parts or gaps, change not shown): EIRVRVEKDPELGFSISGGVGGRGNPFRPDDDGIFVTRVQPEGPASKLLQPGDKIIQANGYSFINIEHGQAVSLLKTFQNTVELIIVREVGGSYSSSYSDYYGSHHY
Chain of ePDZ-a linker mutant GGSG (Q96RT1 other isoform, or with tags, fused parts or gaps, change not shown): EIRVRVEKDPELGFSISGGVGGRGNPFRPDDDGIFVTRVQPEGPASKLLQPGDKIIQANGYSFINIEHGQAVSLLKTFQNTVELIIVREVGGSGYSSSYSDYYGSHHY

Substance: ePDZ-a linker mutant GG (from UniProt Q96RT1 1321-1410) (designed binder)
pKd [1]: 6.51

Substance: ePDZ-a linker mutant GGS (from UniProt Q96RT1 1321-1410) (designed binder)
pKd [1]: 6.87

Substance: ePDZ-a linker mutant GGSG (from UniProt Q96RT1 1321-1410) (designed binder)
pKd [1]: 6.93

Substance: ePDZ-b (from UniProt Q96RT1 1321-1410) (designed binder)
fold decrease in binding affinity against the wild-type ARVCF peptide [2]: > 5 fold
ΔΔG upon Ala substitution of the ARVCF peptide [2]: > 1 kcal/mol
fold decrease in binding affinity against the wild-type ARVCF peptide [3]: > 5 fold
ΔΔG upon Ala substitution of the ARVCF peptide [3]: > 3 kcal/mol
fold decrease in binding affinity against the wild-type ARVCF peptide [4]: > 5 fold
ΔΔG upon Ala substitution of the ARVCF peptide [4]: > 1 kcal/mol
fold decrease in binding affinity against the wild-type ARVCF peptide [5]: > 5 fold
ΔΔG upon Ala substitution of the ARVCF peptide [5]: > 1 kcal/mol
fold discrimination between the two targets [6]: 200 fold
pKd [7]: 7.25
koff [7]: 0.011 s⁻¹
kon [7]: 190000 M⁻¹ s⁻¹
Specificity Index (Kd for δ-catenin / Kd for ARVCF) [8]: > 446
pKd [9]: 7.25

Now from value to substance:

pKd [1]: < 5.30
Substance: ePDZ-b linker mutant GGS (from UniProt Q96RT1 1321-1410) (designed binder)

pKd [1]: 6.39
fold reduction of binding affinity against the original linker [10]: 8 fold
Substance: ePDZ-b linker mutant GGSG (from UniProt Q96RT1 1321-1410) (designed binder)

Source: patent US20110045604A1
